What was measured:
Experiment in all cases: two-hybrid library CCNG1;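 also: natural log of median RNA to DNA barcode read ratio; higher means stronger binding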
4H1072-bA = target: T1, 4H1072-bA
T1 chain: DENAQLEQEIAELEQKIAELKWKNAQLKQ

4H344-bA = target: T2, 4H344-bA
T2 chain: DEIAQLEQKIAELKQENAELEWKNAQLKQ

4H3592-bA = target: T3, 4H3592-bA
T3 chain: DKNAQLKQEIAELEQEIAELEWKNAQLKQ

4H3601-bA = target: T4, 4H3601-bA
T4 chain: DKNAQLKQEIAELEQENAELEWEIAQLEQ

4H1387-bA = target: T5, 4H1387-bA
T5 chain: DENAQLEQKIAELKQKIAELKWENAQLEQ

4H2568-bA = target: T6, 4H2568-bA
T6 chain: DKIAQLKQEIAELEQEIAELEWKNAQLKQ

4H3907-bA = target: T7, 4H3907-bA
T7 chain: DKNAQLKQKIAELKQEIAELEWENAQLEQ

4H363-bA = target: T8, 4H363-bA
T8 chain: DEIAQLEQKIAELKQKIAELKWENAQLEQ

4H3961-bA = target: T9, 4H3961-bA
T9 chain: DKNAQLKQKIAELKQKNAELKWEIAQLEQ

4H4038-bA = target: T10, 4H4038-bA
T10 chain: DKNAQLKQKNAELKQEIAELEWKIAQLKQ

4H2745-bA = target: T11, 4H2745-bA
T11 chain: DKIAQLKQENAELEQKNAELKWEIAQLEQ

4H1406-bA = target: T12, 4H1406-bA
T12 chain: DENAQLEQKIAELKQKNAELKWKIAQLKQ

4H2619-bA = target: T13, 4H2619-bA
T13 chain: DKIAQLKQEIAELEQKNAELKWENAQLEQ

4H1193-bA = target: T14, 4H1193-bA
T14 chain: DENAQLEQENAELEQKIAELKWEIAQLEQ

4H470-bA = target: T15, 4H470-bA
T15 chain: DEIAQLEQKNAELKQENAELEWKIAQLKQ

B1: 4H1072-bA (peptide)
chain: DENAQLEQEIAELEQKIAELKWKNAQLKQ
4H1072-bA
  interaction score: 0.969
4H344-bA
  interaction score: -0.759
4H3592-bA
  interaction score: 1.81
4H3601-bA
  interaction score: 0.34
4H1387-bA
  interaction score: 1.46
4H2568-bA
  interaction score: 1.85
4H3907-bA
  interaction score: 0.997
4H363-bA
  interaction score: 1.21
4H3961-bA
  interaction score: 1.34
4H4038-bA
  interaction score: 1.71
4H2745-bA
  interaction score: -0.205
4H1406-bA
  interaction score: 0.239
4H2619-bA
  interaction score: 0.0458
4H1193-bA
  interaction score: 0.766
4H470-bA
  interaction score: -1.2
